Data as given in patent publication US20200299408A1 (Genentech, published 2020).
Residue numbers refer to the chain shown, from its start. In names and notes the source's numbering stands. Several values for one entry are separate records, joined by “and”; a condition that tells them apart may be missing. Equal entries are not always repeated. Where two headings read alike, the source gives them in different places. Each block holds one binder with its values, some of them ahead of it.

Columns and labels:
[1] = biological target: CD3 antigen of Figures 3B and 3C (not named); assay: kinetic table of IgGs; method and antigen not stated
[2] = biological target: CD3 antigen of Figures 3B and 3C (not named); assay: as above; remark: listed apart in the source
[3] = biological target: T1, commercial CD3ε (Creative Biomart, Catalog Number CD3E-2194H) (human, UniProt P07766); assay: binding affinity on commercial CD3ε (Creative Biomart CD3E-2194H); method not stated in the legend
T1 construct: commercial recombinant protein; also called commercial CD3E

[4] = biological target: T2, single chain human CD3ε-26mer-CD3γ (CD3εγ) (human); assay: Biacore full (multi-) cycle kinetics; KD relative to hu38E4.v1
T2 construct: also called human CD3εγ
T2 chain: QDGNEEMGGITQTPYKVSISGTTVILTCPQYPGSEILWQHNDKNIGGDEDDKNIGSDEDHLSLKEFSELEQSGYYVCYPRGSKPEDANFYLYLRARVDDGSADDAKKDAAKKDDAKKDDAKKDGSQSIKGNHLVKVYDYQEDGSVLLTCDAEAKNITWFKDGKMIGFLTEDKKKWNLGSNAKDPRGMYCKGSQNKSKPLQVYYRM
Description: (§1) In addition, position 95 in HVR-H3 was also mutated to serine, threonine, or glutamate. Variants with these single point mutations were expressed as Fabs in HEK293 cells and initially screened with a single cycle kinetics method on a Biacore T100. Selected variants were also scaled up and purified for a conventional multi-cycle kinetics method. For single cycle kinetics, Biacore Series S CM5 sensor chips were immobilized with anti-human Fab antibodies (Human Fab capture kit, GE Healthcare). […] For conventional multi-cycle kinetics, human CD3εγ, cyno CD3εγ, or a 27-mer peptide were immobilized on Biacore Series S CM5 sensor chip using the amine coupling kit from Biacore. Serial 3-fold dilutions of each Fab variant were injected at a flow rate of 30 μl/min. Each sample was analyzed with a protocol of 3-minute association and 3-minute dissociation. In both methods, the Biacore chips were regenerated using 10 mM Glycine (pH 1.7). Binding response was corrected by blank subtraction and a 1:1Languir model of simultaneous fitting of kₒₙ and koff was used for kinetics analysis.

[5] = biological target: T2, single chain human CD3ε-26mer-CD3γ …; assay: Biacore full (multi-) cycle kinetics: antigen on chip, Fab injected; antigen not named on the sheet, taken as human CD3εγ
Description: as §1

[6] = biological target: T2, single chain human CD3ε-26mer-CD3γ …; assay: Biacore, human CD3εγ on chip, TDB in flow through
Procedure: (§2) Binding affinities for the each of the CD3/CD20 TDBs were tested by Biacore or FACS analysis, as described above for the anti-CD3 antibodies. Briefly, for Biacore binding assays, human CD3εγ was immobilized on Biacore Series S CM5 sensor chip using the amine coupling kit from Biacore and CD3/CD20 TDBs or Fab variants thereof were in the flow through. For FACS binding assays, either Bjab cells (for B cell antigens) or Jurkat cells (for CD3 antigen) were incubated with various concentrations of TDB antibodies at 4° C. for 30 minutes, then cells were washed and incubated with 2nd antibody (anti-huIgG-PE; BD Bioscience) for another 15 minutes, before cells were washed again and ready for FACS analysis.

human CD3 on T cells = biological target: T3, human CD3 on T cells (human, UniProt P07766 22-207); assay: FACS on Jurkat cells (CD3); EC50 table for the curves of FIGS. 21A-21B; source CHO (N297G)
T3 construct: whole, on cells; On cells CD3ε stands in the CD3/TCR complex; also called CD3 antigen; CD3ε
Procedure: as §2

B1: 38E4 (antibody, IgG3, V domains shown)
VH: QVQLQQSGPELVKPGASVTISCTASGFTFTSYYIHWVRQRPGQGLEWIGWIYPENDNTKYNEKFKDKATLTADTSSSTAYMQLSSLTSEDSAVYYCARDGYSRYYFDYWGQGTTLTVSS
VL: DIVMTQSPSFLAVSAGEKVTMSCKSSQSLLNSRTRKNYLAWYQQRPGQSPKLLIYWTSTRKSGVPDRFTGSGSGTDFTLTISSVQAEDLAIYYCKQSFILRTFGGGTKLEIK
notes: mouse hybridoma clone; also called mu38E4
Kd [1]: 0.95 nM
koff [1]: 5.32e-05 s⁻¹
kon [1]: 56000 M⁻¹ s⁻¹
Kd [2]: 0.0783 nM
koff [2]: 3.45e-05 s⁻¹
kon [2]: 441000 M⁻¹ s⁻¹

B2: Rab17 (antibody, rabbit IgG1, V domains shown)
VH: QSVKESEGGLFKPTDTLTLTCTVSGCSLSSCAISWVRQAPGKGLEWIGFMSVTGSAYYANWAKSRSTITRNTNENTVTLKMTRLTAADTAIYFCARVGIGSGLNIWG
VL: DMTQTPSSKSVPVGDTVTINCQASETVYSNNYLAWFQQKPGQPPKRLIYGVSTLDSGVPPRFSGSGSGTQFTLTISDVVCDDAATYYCAGYKTSSSYAIAFGGGTELEIL
notes: clone from the rabbit immunization
Kd [1]: 8.46 nM
koff [1]: 0.000242 s⁻¹
kon [1]: 28600 M⁻¹ s⁻¹

B3: murine SP34 (antibody, V domains shown)
VH: EVQLVESGGGLVQPKGSLKLSCAASGFTFNTYAMNWVRQAPGKGLEWVARIRSKYNNYATYYADSVKDRFTISRDDSQSILYLQMNNLKTEDTAMYYCVRHGNFGNSYVSWFAYWGQGTLVTVSS
VL: QAVVTQESALTTSPGETVTLTCRSSTGAVTTSNYANWVQEKPDHLFTGLIGGTNKRAPGVPARFSGSLIGDKAALTITGAQTEDEAIYFCALWYSNLWVFGGGTKLTVL
Kd [3]: 7 nM

B4: humanized SP34 variant: λ7 graft + F36V + T46G + Y49G / VH3 graft + N73D + T93V (antibody, V domains shown)
VH: B3 VH with K15G, K19R, A49G, Q78K, S79N, I80T, N87S, K89R, T90A, M95V
VL: EAVVTQEPSLTVSPGGTVTLTCRSSTGAVTTSNYANWVQQKPGQAPRGLIGGTNKRAPWTPARFSGSLLGGKAALTLSGAQPEDEAEYYCALWYSNLWVFGGGTKLTVL
Kd [3]: 3.5 nM

B5: humanized SP34 variant: λ7 graft + F36V + Q38E + A43L + P44F + T46G + Y49G + T58V + Y87F / VH3 graft + G49A + T93V (antibody, V domains shown)
VH: B3 VH with K15G, K19R, D76N, Q78K, S79N, I80T, N87S, K89R, T90A, M95V
VL: B4 VL with Q40E, A45L, P46F, T60V, Y89F
Kd [3]: 21 nM

B7: hu38E4.v1 H3 mutant D95S (Fab, V domains shown)
VH: EVQLVQSGAEVKKPGASVKVSCKASGFTFTSYYIHWVRQAPGQGLEWIGWIYPENDNTKYNEKFKDRVTITADTSTSTAYLELSSLRSEDTAVYYCARSGYSRYYFDYWGQGTLVTVSS
VL: DIVMTQSPDSLAVSLGERATINCKSSQSLLNSRTRKNYLAWYQQKPGQSPKLLIYWTSTRKSGVPDRFSGSGSGTDFTLTISSLQAEDVAVYYCKQSFILRTFGQGTKVEIK
notes: copies: 1 + 1
ratio (fold) [4]: 226 fold
Kd [5]: 180 nM
koff [5]: 0.202 s⁻¹
kon [5]: 1.12e+06 M⁻¹ s⁻¹

B10: 38E4v9 CHO (bispecific antibody)
anti-CD20 arm heavy chain: EVQLVESGGGLVQPGGSLRLSCAASGYTFTSYNMHWVRQAPGKGLEWVGAIYPGNGDTSYNQKFKGRFTISVDKSKNTLYLQMNSLRAEDTAVYYCARVVYYSNSYWYFDVWGQGTLVTVSS
anti-CD20 arm light chain: DIQMTQSPSSLSASVGDRVTITCRASSSVSYMHWYQQKPGKAPKPLIYAPSNLASGVPSRFSGSGSGTDFTLTISSLQPEDFATYYCQQWSFNPPTFGQGTKVEIK
anti-CD3 arm heavy chain: B7 VH with S99D, Y104A
anti-CD3 arm light chain: B7 VL
notes: also called CD3/CD20 TDB 2H7v16/38E4v9
Kd [6]: 64200 nM
koff [6]: 1.02 s⁻¹
kon [6]: 15900 M⁻¹ s⁻¹
EC50 (human CD3 on T cells): 15 µg/mL and ~97 nM

B11: hu38E4.v1 L3 mutant Q90A (Fab, V domains shown)
VH: B7 VH with S99D
VL: B7 VL with Q96A
notes: copies: 1 + 1
ratio (fold) [4]: 29.9 fold
Kd [5]: 23.8 nM
koff [5]: 0.00422 s⁻¹
kon [5]: 178000 M⁻¹ s⁻¹

B15: hu38E4.v1 H3 mutant Y100aA (Fab, V domains shown)
VH: B7 VH with S99D, Y105A
VL: B7 VL
notes: copies: 1 + 1
ratio (fold) [4]: 110 fold
Kd [5]: 87 nM
koff [5]: 0.0246 s⁻¹
kon [5]: 283000 M⁻¹ s⁻¹

B18: hu38E4.v1 L3 mutant I93A (Fab, V domains shown)
VH: B7 VH with S99D
VL: B7 VL with I99A
notes: copies: 1 + 1
ratio (fold) [4]: 5.1 fold
Kd [5]: 4 nM
koff [5]: 0.0124 s⁻¹
kon [5]: 3.08e+06 M⁻¹ s⁻¹

B19: hu38E4.v1 H3 mutant G96A (Fab, V domains shown)
VH: B7 VH with S99D, G100A
VL: B7 VL
notes: copies: 1 + 1
ratio (fold) [4]: 2.4 fold
Kd [5]: 1.9 nM
koff [5]: 0.00357 s⁻¹
kon [5]: 1.86e+06 M⁻¹ s⁻¹

Next, values leading:

Kd [1]: 0.86 nM
koff [1]: 2.69e-05 s⁻¹
kon [1]: 31100 M⁻¹ s⁻¹
Kd [2]: 0.159 nM
koff [2]: 2.48e-05 s⁻¹
kon [2]: 156000 M⁻¹ s⁻¹
B6: 40G5 (antibody, V domains shown)
VH: QVQLQQSGPELVKPGTSVKMSCKASGYTFTNYYIHWVRQRPGQGLEWIGWIYPGDVSTKYNEKFKGKTTLTADKSSSTAYMLLSGLTSEDSAIYFCARDGYSFYYFDYWGQGTTLTVSS
VL: DIVLTQSPSSLAVSAGEKVTMSCKSSQSLLNSRTRKNYLTWYQQKPGQSPKLLIYWASTRDSGVPDRFSGSGSGTDFTLTISSVQAEDLAVYYCTQSYTLRTFGGGTKLEIK
notes: mouse hybridoma clone; not the consensus 40G5c; also called mu40G5

Kd [6]: 51.5 nM
koff [6]: 0.0307 s⁻¹
kon [6]: 597000 M⁻¹ s⁻¹
EC50 (human CD3 on T cells): 2.01 µg/mL and ~13 nM
B8: 40G5c CHO (bispecific antibody, V domains shown)
VH 1: B10 anti-CD20 arm heavy chain
VL 1: B10 anti-CD20 arm light chain
VH 2: EVQLVQSGAEVKKPGASVKVSCKASGYTFTNYYIHWVRQAPGQGLEWIGWIYPGDGNTKYNEKFKGRATLTADTSTSTAYLELSSLRSEDTAVYYCARDSYSNYYFDYWGQGTLVTVSS
VL 2: B7 VL with S49P, T57A, K61E, K95T
modifications: CHO-produced full-length knob-into-hole IgG with N297G in the Fc; constant regions are not in the letters.
notes: CHO material; also called CD3/CD20 TDB 2H7v16/40G5c produced in CHO, N297G

Kd [6]: 37600 nM
koff [6]: 0.878 s⁻¹
kon [6]: 23400 M⁻¹ s⁻¹
EC50 (human CD3 on T cells): 5.56 µg/mL and ~36 nM
B9: 38E4v6 CHO (bispecific antibody)
anti-CD20 arm heavy chain: B10 anti-CD20 arm heavy chain
anti-CD20 arm light chain: B10 anti-CD20 arm light chain
anti-CD3 arm heavy chain: B7 VH with S99T
anti-CD3 arm light chain: B7 VL
notes: also called CD3/CD20 TDB 2H7v16/38E4v6

Kd [6]: 3930 nM
koff [6]: 0.0443 s⁻¹
kon [6]: 11300 M⁻¹ s⁻¹
EC50 (human CD3 on T cells): 7.23 µg/mL and ~47 nM
B12: 38E4v8 CHO (bispecific antibody)
anti-CD20 arm heavy chain: B10 anti-CD20 arm heavy chain
anti-CD20 arm light chain: B10 anti-CD20 arm light chain
anti-CD3 arm heavy chain: B7 VH
anti-CD3 arm light chain: B7 VL
notes: also called CD3/CD20 TDB 2H7v16/38E4v8

ratio (fold) [4]: 521 fold
Kd [5]: 414 nM
koff [5]: 0.0191 s⁻¹
kon [5]: 46000 M⁻¹ s⁻¹
B13: hu38E4.v1 H3 mutant Y100A (Fab, V domains shown)
VH: B7 VH with S99D, Y104A
VL: B7 VL
notes: copies: 1 + 1

ratio (fold) [4]: 20 fold
Kd [5]: 15.9 nM
koff [5]: 0.0232 s⁻¹
kon [5]: 1.46e+06 M⁻¹ s⁻¹
B14: hu38E4.v1 L3 mutant F92A (Fab, V domains shown)
VH: B7 VH with S99D
VL: B7 VL with F98A
notes: copies: 1 + 1

Kd [6]: 254 nM
koff [6]: 0.29 s⁻¹
kon [6]: 1.14e+06 M⁻¹ s⁻¹
EC50 (human CD3 on T cells): 22.6 µg/mL and ~147 nM
B16: 38E4v7 CHO (bispecific antibody)
anti-CD20 arm heavy chain: B10 anti-CD20 arm heavy chain
anti-CD20 arm light chain: B10 anti-CD20 arm light chain
anti-CD3 arm heavy chain: B7 VH with S99D, Y105A
anti-CD3 arm light chain: B7 VL
notes: also called CD3/CD20 TDB 2H7v16/38E4v7

ratio (fold) [4]: 43 fold
Kd [5]: 34.2 nM
koff [5]: 0.00175 s⁻¹
kon [5]: 51100 M⁻¹ s⁻¹
B17: hu38E4.v1 H3 mutant D95T (Fab, V domains shown)
VH: B7 VH with S99T
VL: B7 VL
notes: copies: 1 + 1
